Reference: patent US20230136228A1 (LAMKAP BIO ALPHA, published 2023)
Positions count from the first letter of the chain named. Names and notes keep the numbering of the source.

B1: AB17L3-1/N (bispecific antibody, human IgG1, kappa, lambda, L234A L235A)
heavy: EVQLVESGGGLVQPGGSLKLSCAASGFTFNTYAMNWVRQAPGKGLEWVGRIRSKYNNYATYYADSVKDRFTISRDDSKNTAYLQMNSLKTEDTAVYYCVRHGNFGNSYVSWFAYWGQGTLVTVSSASTKGPSVFPLAPSSKSTSGGTAALGCLVKDYFPEPVTVSWNSGALTSGVHTFPAVLQSSGLYSLSSVVTVPSSSLGTQTYICNVNHKPSNTKVDKRVEPKSCDKTHTCPPCPAPEAAGGPSVFLFPPKPKDTLMISRTPEVTCVVVDVSHEDPEVKFNWYVDGVEVHNAKTKPREEQYNSTYRVVSVLTVLHQDWLNGKEYKCKVSNKALAAPIEKTISKAKGQPREPQVYTLPPSREEMTKNQVSLTCLVKGFYPSDIAVEWESNGQPENNYKTTPPVLDSDGSFFLYSKLTVDKSRWQQGNVFSCSVMHEALHNHYTQKSLSLSPG
light 1: EIVLTQSPATLSLSPGERATLSCRASQSVNSNLNWYQQKPGQAPRLLIYHGSNRATGIPARFSGSGSGTDFTLTISSLEPEDFAVYYCQQFDYFKEHNTFGQGTKVEIKRTVAAPSVFIFPPSDEQLKSGTASVVCLLNNFYPREAKVQWKVDNALQSGNSQESVTEQDSKDSTYSLSSTLTLSKADYEKHKVYACEVTHQGLSSPVTKSFNRGEC
light 2: QTVVTQEPSLTVSPGGTVTLTCRSSTGAVTTSNYANWFQQKPGQAPRGLIGGTNKRAPGTPARFSGSLLGGKAALTLSGAQPEDEAEYYCALWYKQRWVFGGGTKLTVLGQPKAAPSVTLFPPSSEELQANKATLVCLISDFYPGAVTVAWKADSSPVKAGVETTTPSKQSNNKYAASSYLSLTPEQWKSHRSYSCQVTHEGSTVEKTVAPTECS
notes: Kappa-lambda body, lead optimization wave 1
B2: AB1L3-1/N (bispecific antibody, human IgG1, kappa, lambda, L234A L235A)
heavy: B1 heavy
light 1: B1 light 1 with Y93L, F94R, K95H
light 2: B1 light 2
notes: Kappa-lambda body: common heavy chain (hIgG1 L234A+L235A+P329A), kappa CEA light chain AB1, lambda CD3 light chain L3-1 (1A4); also called parental KL bispecific antibody
B3: AB72L3-1/N (bispecific antibody, human IgG1, kappa, lambda, L234A L235A)
heavy: B1 heavy
light 1: B1 light 1 with G51S, S52T, A55P, T56R, H97Y
light 2: B1 light 2
notes: Kappa-lambda body, lead optimization wave 2

What was measured:
human CD3ε [1] = target: T1, human CD3ε (human, UniProt P07766 23-207); assay: flow cytometry, HUT-78 cells
T1 construct: whole, on cells; Present on cells as part of the CD3/TCR complex; also called CD3 epsilon
T1 sequence (P07766 23-207): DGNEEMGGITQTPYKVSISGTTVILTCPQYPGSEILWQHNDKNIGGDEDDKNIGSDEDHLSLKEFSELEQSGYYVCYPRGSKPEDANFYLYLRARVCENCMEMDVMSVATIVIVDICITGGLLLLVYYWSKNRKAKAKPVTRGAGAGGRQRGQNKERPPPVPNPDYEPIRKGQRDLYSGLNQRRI

human CEACAM8 = target: T2, human CEACAM8 (human, UniProt P31997 35-320); assay: flow cytometry, transfected PEAK cells
T2 construct: whole, on cells
T2 sequence (looked up): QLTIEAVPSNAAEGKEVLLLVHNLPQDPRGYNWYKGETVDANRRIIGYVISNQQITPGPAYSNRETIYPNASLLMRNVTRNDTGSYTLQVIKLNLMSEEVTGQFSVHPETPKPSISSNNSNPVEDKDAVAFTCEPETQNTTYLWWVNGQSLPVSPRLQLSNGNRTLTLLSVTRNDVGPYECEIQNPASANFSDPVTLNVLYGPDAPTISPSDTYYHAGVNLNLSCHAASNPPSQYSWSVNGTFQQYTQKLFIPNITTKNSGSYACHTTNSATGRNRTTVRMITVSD
Excerpt: Vectors encoding the full-length version of human CEACAM 1, 3, 4, 5, 6, 7, 8, 18, 19, 20 and […] are used to express these proteins at the surface of PEAK and/or CHO cells as described in Example 1. Similarly, vectors encoding the full-length version of cyno CEACAM 5 and 6 are also used to express these proteins at the surface of PEAK and/or CHO cells. Non-transfected PEAK and/or CHO cells are used as negative control. Cells are harvested, counted, checked for viability and resuspended at 3×10⁶ cells/ml in FACS buffer (PBS 2% BSA, 0.1% NaN₃). 100 μl of the cell suspension are distributed in V-bottom 96-well plates (3×10⁵ cells/well). The supernatant is removed by centrifugation 3 minutes at 4° C., 1300 rpm and the cells incubated for 15 minutes at 4° C. with increasing concentrations of the antibody according to the invention. The antibodies carrying the anti-CEACAM5 arms to test are diluted in FACS buffer and the concentration range is 30 pM-500 nM. Cells are washed twice with cold FACS buffer and re-incubated for further 15 minutes at 4° C. with a compatible anti-human IgG secondary antibody. Cells are washed twice with cold FACS buffer and resuspended in 300 μl FACS buffer with 1:1500-diluted TOPRO-3 (Invitrogen). Fluorescence is measured using a FACSCalibur™ (BD Biosciences) or a Cytoflex Platform (Beckman Coulter). Dose-response binding curves are fitted using GraphPad Prism8 software. In the same manner, CEACAM1, CEACAM6 and other CEACAMs can be characterized.
For the bispecific antibodies AB17L3-1/N, AB71L3-1/N, AB72L3-1/N, AB73L3-1/N the MFI measured for binding to CEACAM5 transfected cells was found between 29000 and 41000 (Table 2). In contrast MFI found by using PEAK cells transfected with CEACAM 1,3,4,6,8 were found below 1000 with the only exception of a strong signal for AB72L3-1/N on CEACAM8 transfected cells. When MFI values obtained on transfected cells expressing any given CEACAM are divided by the values obtained on WT PEAK cells, “factors to PEAK WT” can be calculated (Table 3).

[2] = target: T3, human CEACAM5 (carcinoembryonic antigen, CEA), cell surface (human, UniProt P06731 35-685); assay: flow cytometry, MKN-45 and/or HPAF-II cells
T3 construct: whole, on cells; also called CD66e
T3 sequence (looked up): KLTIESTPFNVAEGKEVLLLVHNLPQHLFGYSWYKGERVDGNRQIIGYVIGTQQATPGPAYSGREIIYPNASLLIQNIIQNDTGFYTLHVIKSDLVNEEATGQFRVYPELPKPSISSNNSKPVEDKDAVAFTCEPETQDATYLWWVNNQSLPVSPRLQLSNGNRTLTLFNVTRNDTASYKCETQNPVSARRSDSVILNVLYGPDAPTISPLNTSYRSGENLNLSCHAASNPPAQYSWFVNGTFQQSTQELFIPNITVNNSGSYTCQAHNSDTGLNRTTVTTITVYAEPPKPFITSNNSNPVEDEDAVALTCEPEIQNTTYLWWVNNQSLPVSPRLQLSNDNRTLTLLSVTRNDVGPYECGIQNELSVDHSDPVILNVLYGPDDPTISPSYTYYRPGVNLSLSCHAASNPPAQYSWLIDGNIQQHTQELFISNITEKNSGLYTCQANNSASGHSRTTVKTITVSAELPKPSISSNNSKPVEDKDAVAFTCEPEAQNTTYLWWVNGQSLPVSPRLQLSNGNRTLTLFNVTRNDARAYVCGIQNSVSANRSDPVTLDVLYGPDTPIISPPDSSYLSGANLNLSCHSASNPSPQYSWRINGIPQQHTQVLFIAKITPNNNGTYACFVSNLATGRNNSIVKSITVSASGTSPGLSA

human CD3ε [3] = target: T1, human CD3ε; assay: flow cytometry, primary CD4+ and CD8+ T-cells

Binder	binding result (human CD3ε [1])	binding result (human CEACAM8)	binding higher than TCB2014 (at 100 nM) [2] [%]	binding result (human CD3ε [3])
B1	binds	no binding (tested: 10 mcg/ml)	≥ 40	–
B2	–	no binding (tested: 10 mcg/ml)	–	–
B3	–	–	–	binds
